Among the data in patent publication US20080096187A1 are IC50 (neutralization) in the absence of sCD4, IC50 (neutralization) in the presence of sCD4 and IC50 (neutralization) values, retold here.

Assay in all cases: cell-based or functional assay
Assay [1] addresses HIV-2 UC-1 envelope glycoprotein (HIV-2 UC1) (UniProt Q76638).
Assay [2] concerns the target HIV-2 7312A/H419R envelope glycoprotein (HIV-2 isolate 7312A).
Assay [3] addresses HIV-2 7312A envelope glycoprotein (HIV-2 isolate 7312A).
Assay [4] has as its target HIV-2 7312A/Q422L envelope glycoprotein (HIV-2 isolate 7312A).
Assay [5] deals with HIV-2 7312A/V434M envelope glycoprotein (HIV-2 isolate 7312A).
Assay [6] has as its target HIV-1 YU2 envelope glycoprotein (HIV-1 YU2) (UniProt P35961).
For assay [7], the target named is HIV-2 7312A envelope glycoprotein with substitutions 660 (K to A), 662 (N to D), 663 (S to K) and 665 (D to A) (HIV-2 isolate 7312A).
Assay [8] addresses HIV-2 ST envelope glycoprotein (HIV-2 ST) (UniProt P20872).
Assay [9] addresses HIV-2 7312A envelope glycoprotein with substitutions 675 (L to I) and 676 (A to T) (HIV-2 isolate 7312A).

In the case of E51 (antibody), the IC50 (neutralization) in the absence of sCD4 in [1], in assay [2], in assay [3], in assay [4] and in assay [5] was over 25 µg/mL throughout. Besides, the IC50 (neutralization) in the presence of sCD4 in [1] is 13 µg/mL; in [2], 22 µg/mL; in assay [3], over 25 µg/mL; in assay [4], over 25 µg/mL; in assay [5] it was 4 µg/mL.
As for 2F5 (antibody), the IC50 (neutralization) in assay [6] was 25 µg/mL; in [3], over 50 µg/mL; in [7], under 0.1 µg/mL. Also, the IC50 (neutralization) in the absence of sCD4 in assay [1] and in assay [3] was over 25 µg/mL each time. For the same substance, the IC50 (neutralization) in the presence of sCD4 in assay [1] and in assay [3] was over 25 µg/mL each time.
With X5 (antibody), the IC50 (neutralization) in the absence of sCD4 in assay [1], in [2], in assay [3], in assay [4] and in [5] was over 25 µg/mL in each case. The IC50 (neutralization) in the presence of sCD4 in [1] is over 25 µg/mL; in [2], over 25 µg/mL; in assay [3], over 25 µg/mL; in assay [4], over 25 µg/mL; in assay [5] it was 2.5 µg/mL.
For the substance 4E10 (antibody), the IC50 (neutralization) in assay [6] was 25 µg/mL; in assay [8], 0.1 µg/mL; in assay [1], 1.2 µg/mL; in [9], 0.8 µg/mL; in [3], over 50 µg/mL.
Turning to A32 (antibody), the IC50 (neutralization) in the absence of sCD4 in [1] and in assay [3] was over 25 µg/mL each time. Further, the IC50 (neutralization) in the presence of sCD4 in [1] and in assay [3] was over 25 µg/mL throughout.
Regarding F105 (antibody), the IC50 (neutralization) in the absence of sCD4 in assay [1] and in assay [3] was over 25 µg/mL in each case. Further, the IC50 (neutralization) in the presence of sCD4 in assay [1] and in assay [3] was over 25 µg/mL in each case.
With 2G12 (antibody), in assay [1], the IC50 (neutralization) in the absence of sCD4 was over 25 µg/mL and the IC50 (neutralization) in the presence of sCD4 was over 25 µg/mL. Moreover, in assay [3], the IC50 (neutralization) in the absence of sCD4 was over 25 µg/mL and the IC50 (neutralization) in the presence of sCD4 was over 25 µg/mL.
For the substance ED49 (antibody), the IC50 (neutralization) in the absence of sCD4 in assay [1], in assay [2], in assay [3], in assay [4] and in assay [5] was over 25 µg/mL throughout. Also, the IC50 (neutralization) in the presence of sCD4 came to 12 µg/mL in assay [1]; 3.3 µg/mL in assay [2]; 5.4 µg/mL in [3]; 3 µg/mL in [4]; 2.4 µg/mL in assay [5].
b12 (antibody) showed an IC50 (neutralization) in [6] of 3 µg/mL. In addition, in assay [1], the IC50 (neutralization) in the absence of sCD4 is over 25 µg/mL and the IC50 (neutralization) in the presence of sCD4 is over 25 µg/mL. For the same substance, in assay [3], the IC50 (neutralization) is over 50 µg/mL, the IC50 (neutralization) in the absence of sCD4 is over 25 µg/mL and the IC50 (neutralization) in the presence of sCD4 is over 25 µg/mL.
For ED47 (antibody), the IC50 (neutralization) in the absence of sCD4 in assay [1], in assay [2], in assay [3], in assay [4] and in assay [5] was over 25 µg/mL each time. Also, the IC50 (neutralization) in the presence of sCD4 in [1] was over 25 µg/mL; in [2] it was 4.7 µg/mL; in [3], over 25 µg/mL; in assay [4] it was over 25 µg/mL; in assay [5], over 25 µg/mL.
